From patent US20240192215A1 (E AND S HEALTHCARE, published 2024)

What was measured:
Peptide_005 [1] = target: T1, Peptide_005 (human); experiment: peptide microarray, 5 ug/mL
T1 construct: 15-mer on microarray; not native form, recombinant insert region
T1 peptide: ADVHSQHHHHHHHHV
Method: (§1) 5, 1, 0.2, 0.04, 0.008 and 0.0016 μg/mL serial dilutions were incubated on a single multi-well microarray slide at 30° C. for 1 hour. The slide includes 21 individual mini-arrays (one mini-array per sample dilution).
(§2) DyLight 650 was used as a label. False-positive binding to a peptide was evaluated by performing one additional control incubation in which only a secondary antibody was applied on the same microarray slide. Before performing each step, the microarrays were washed with a washing buffer.

Peptide_004 [2] = target: T2, Peptide_004 (human); experiment: peptide microarray, 5 ug/mL
T2 construct: 15-mer on microarray; not native form, recombinant insert region
T2 peptide: AADVHSQHHHHHHHH
Method: as §1, §2

Peptide_005 [3] = target: T1, Peptide_005; experiment: peptide microarray, 0.2 ug/mL
Method: as §1, §2

Peptide_004 [4] = target: T2, Peptide_004; experiment: peptide microarray, 0.2 ug/mL
Method: as §1, §2

Peptide_023 [5] = target: T3, Peptide_023 (human); experiment: peptide microarray, 5 ug/mL
T3 construct: 15-mer of hTrx1 on microarray
T3 peptide: ESKTAFQEALDAAGD
Method: as §1, §2

Peptide_019 = target: T4, Peptide_019 (human); experiment: peptide microarray, 5 ug/mL
T4 construct: 15-mer of hTrx1 on microarray
T4 peptide: VKQIESKTAFQEALD
Method: as §1, §2

Peptide_092 [6] = target: T5, Peptide_092 (human); experiment: peptide microarray, 5 ug/mL
T5 construct: 15-mer of hTrx1 on microarray
T5 peptide: PTFQFFKKGQKVGEF
Method: as §1, §2

Peptide_094 [7] = target: T6, Peptide_094 (human); experiment: peptide microarray, 5 ug/mL
T6 construct: 15-mer of hTrx1 on microarray
T6 peptide: FQFFKKGQKVGEFSG
Method: as §1, §2

Peptide_084 [8] = target: T7, Peptide_084 (human); experiment: peptide microarray, 5 ug/mL
T7 construct: 15-mer of hTrx1 on microarray
T7 peptide: SECEVKCMPTFQFFK
Method: as §1, §2

Peptide_015 = target: T8, Peptide_015 (human); experiment: peptide microarray, 5 ug/mL
T8 construct: 15-mer on microarray; not native form, includes recombinant insert region
T8 peptide: HHHHVKQIESKTAFQ
Method: as §1, §2

Peptide_020 [9] = target: T9, Peptide_020 (human); experiment: peptide microarray, 5 ug/mL
T9 construct: 15-mer of hTrx1 on microarray
T9 peptide: KQIESKTAFQEALDA
Method: as §1, §2

Peptide_014 [10] = target: T10, Peptide_014 (human); experiment: peptide microarray, 5 ug/mL
T10 construct: 15-mer on microarray; not native form, includes recombinant insert region
T10 peptide: HHHHHVKQIESKTAF
Method: as §1, §2

Peptide_025 = target: T11, Peptide_025 (human); experiment: peptide microarray, 5 ug/mL
T11 construct: 15-mer of hTrx1 on microarray
T11 peptide: KTAFQEALDAAGDKL
Method: as §1, §2

Peptide_045 [11] = target: T12, Peptide_045 (human); experiment: peptide microarray, 5 ug/mL
T12 construct: 15-mer of hTrx1 on microarray
T12 peptide: SATWCGPCKMIKPFF
Method: as §1, §2

Peptide_022 [12] = target: T13, Peptide_022 (human); experiment: peptide microarray, 5 ug/mL
T13 construct: 15-mer of hTrx1 on microarray
T13 peptide: IESKTAFQEALDAAG
Method: as §1, §2

Peptide_012 [13] = target: T14, Peptide_012 (human); experiment: peptide microarray, 5 ug/mL
T14 construct: 15-mer on microarray; not native form, includes recombinant insert region
T14 peptide: HHHHHHHVKQIESKT
Method: as §1, §2

Peptide_095 [14] = target: T15, Peptide_095 (human); experiment: peptide microarray, 5 ug/mL
T15 construct: 15-mer of hTrx1 on microarray
T15 peptide: QFFKKGQKVGEFSGA
Method: as §1, §2

Peptide_086 [15] = target: T16, Peptide_086 (human); experiment: peptide microarray, 5 ug/mL
T16 construct: 15-mer of hTrx1 on microarray
T16 peptide: CEVKCMPTFQFFKKG
Method: as §1, §2

Peptide_013 [16] = target: T17, Peptide_013 (human); experiment: peptide microarray, 5 ug/mL
T17 construct: 15-mer on microarray; not native form, includes recombinant insert region
T17 peptide: HHHHHHVKQIESKTA
Method: as §1, §2

Peptide_024 [17] = target: T18, Peptide_024 (human); experiment: peptide microarray, 5 ug/mL
T18 construct: 15-mer of hTrx1 on microarray
T18 peptide: SKTAFQEALDAAGDK
Method: as §1, §2

Peptide_018 [18] = target: T19, Peptide_018 (human); experiment: peptide microarray, 5 ug/mL
T19 construct: 15-mer on microarray; not native form, includes recombinant insert region; also called HVKQIESKTAFQEAL
T19 peptide: HVKQIESKTAFQEAL
Method: as §1, §2

Peptide_051 [19] = target: T20, Peptide_051 (human); experiment: peptide microarray, 5 ug/mL
T20 construct: 15-mer of hTrx1 on microarray
T20 peptide: PCKMIKPFFHSLSEK
Method: as §1, §2

Peptide_093 [20] = target: T21, Peptide_093 (human); experiment: peptide microarray, 5 ug/mL
T21 construct: 15-mer of hTrx1 on microarray
T21 peptide: TFQFFKKGQKVGEFS
Method: as §1, §2

Peptide_085 = target: T22, Peptide_085 (human); experiment: peptide microarray, 5 ug/mL
T22 construct: 15-mer of hTrx1 on microarray
T22 peptide: ECEVKCMPTFQFFKK
Method: as §1, §2

Peptide_021 [21] = target: T23, Peptide_021 (human); experiment: peptide microarray, 5 ug/mL
T23 construct: 15-mer of hTrx1 on microarray
T23 peptide: QIESKTAFQEALDAA
Method: as §1, §2

Peptide_023 [22] = target: T3, Peptide_023; experiment: peptide microarray, 0.2 ug/mL
Method: as §1, §2

Peptide_092 [23] = target: T5, Peptide_092; experiment: peptide microarray, 0.2 ug/mL
Method: as §1, §2

Peptide_094 [24] = target: T6, Peptide_094; experiment: peptide microarray, 0.2 ug/mL
Method: as §1, §2

Peptide_084 [25] = target: T7, Peptide_084; experiment: peptide microarray, 0.2 ug/mL
Method: as §1, §2

Peptide_020 [26] = target: T9, Peptide_020; experiment: peptide microarray, 0.2 ug/mL
Method: as §1, §2

Peptide_014 [27] = target: T10, Peptide_014; experiment: peptide microarray, 0.2 ug/mL
Method: as §1, §2

Peptide_045 [28] = target: T12, Peptide_045; experiment: peptide microarray, 0.2 ug/mL
Method: as §1, §2

Peptide_022 [29] = target: T13, Peptide_022; experiment: peptide microarray, 0.2 ug/mL
Method: as §1, §2

Peptide_012 [30] = target: T14, Peptide_012; experiment: peptide microarray, 0.2 ug/mL
Method: as §1, §2

Peptide_095 [31] = target: T15, Peptide_095; experiment: peptide microarray, 0.2 ug/mL
Method: as §1, §2

Peptide_086 [32] = target: T16, Peptide_086; experiment: peptide microarray, 0.2 ug/mL
Method: as §1, §2

Peptide_013 [33] = target: T17, Peptide_013; experiment: peptide microarray, 0.2 ug/mL
Method: as §1, §2

Peptide_024 [34] = target: T18, Peptide_024; experiment: peptide microarray, 0.2 ug/mL
Method: as §1, §2

Peptide_018 [35] = target: T19, Peptide_018; experiment: peptide microarray, 0.2 ug/mL
Method: as §1, §2

Peptide_051 [36] = target: T20, Peptide_051; experiment: peptide microarray, 0.2 ug/mL
Method: as §1, §2

Peptide_093 [37] = target: T21, Peptide_093; experiment: peptide microarray, 0.2 ug/mL
Method: as §1, §2

Peptide_021 [38] = target: T23, Peptide_021; experiment: peptide microarray, 0.2 ug/mL
Method: as §1, §2

B1: monoclonal antibody B266-1 (antibody, human IgG1)
light: QIVLTQSPAIMSASPGEKVTMTCSASSRISYMYWYQQKPGTSPKRWIYDTSKLASGVPARFSGSGSGTSYSLTISTMEAEDAATYYCHQRSSYPTFGAGTKLELKSVAAPSVFIFPPSDEQLKSGTASVVCLLNNFYPREAKVQWKVDNALQSGNSQESVTEQDSKDSTYSLSSTLTLSKADYEKHKVYACEVTHQGLSSPVTKSFNRGEC
heavy: not shown
notes: B266 with the Fc part changed to human IgG1; also called B266-1 (Trx1-hIgG1); B266-1 (hTrx1-hIgG1)
signal (blank-control = 1) (Peptide_005 [1]): 7.63
signal (blank-control = 1) (Peptide_004 [2]): 6.78
signal (blank-control = 1) (Peptide_005 [3]): 1.78
signal (blank-control = 1) (Peptide_004 [4]): 1.41

B2: monoclonal antibody B264 (antibody, mouse IgG1, kappa, V domains shown)
VH: QVQLQQSGAELARPGASVKMSCKASGYTFTSYTMHWVKQRPGQGLEWIGYINPTSDYTNYNQKFKDKATLTADKSSSTAYMQLSSLTSEDSAVYFCASEGGFLYYFDYWGQGTTLTVSS
VL: DVLMTQTPLSLPVSLGDQASISCRSSQSIVHSNGNTYLEWYLQKPGQSPKLLIYKVSNRFSGVPDRFSGSGSGTDFTLKISRVEAEDLGVYYCFQGSHVPYTFGGGTKLEIKR
notes: also called AB264; B264 (Trx1-mIgG1)
signal (blank-control = 1) (Peptide_023 [5]): 1.26
signal (blank-control = 1) (Peptide_019): 1.98
signal (blank-control = 1) (Peptide_092 [6]): 6.78
signal (blank-control = 1) (Peptide_094 [7]): 4.13
signal (blank-control = 1) (Peptide_084 [8]): 3.79
signal (blank-control = 1) (Peptide_015): 5.96
signal (blank-control = 1) (Peptide_020 [9]): 2.41
signal (blank-control = 1) (Peptide_014 [10]): 6.9
signal (blank-control = 1) (Peptide_025): 6.49
signal (blank-control = 1) (Peptide_045 [11]): 4.9
signal (blank-control = 1) (Peptide_022 [12]): 5.54
signal (blank-control = 1) (Peptide_012 [13]): 4.49
signal (blank-control = 1) (Peptide_095 [14]): 3.44
signal (blank-control = 1) (Peptide_086 [15]): 1.9
signal (blank-control = 1) (Peptide_013 [16]): 4.87
signal (blank-control = 1) (Peptide_024 [17]): 6.09
signal (blank-control = 1) (Peptide_018 [18]): 6.15
signal (blank-control = 1) (Peptide_051 [19]): 4.28
signal (blank-control = 1) (Peptide_093 [20]): 6.18
signal (blank-control = 1) (Peptide_085): 3.87
signal (blank-control = 1) (Peptide_021 [21]): 2.69
signal (blank-control = 1) (Peptide_023 [22]): 1.12
signal (blank-control = 1) (Peptide_092 [23]): 6.81
signal (blank-control = 1) (Peptide_094 [24]): 2.11
signal (blank-control = 1) (Peptide_084 [25]): 2.36
signal (blank-control = 1) (Peptide_020 [26]): 1.84
signal (blank-control = 1) (Peptide_014 [27]): 3.16
signal (blank-control = 1) (Peptide_045 [28]): 4.58
signal (blank-control = 1) (Peptide_022 [29]): 4.2
signal (blank-control = 1) (Peptide_012 [30]): 1.72
signal (blank-control = 1) (Peptide_095 [31]): 2.13
signal (blank-control = 1) (Peptide_086 [32]): 1.16
signal (blank-control = 1) (Peptide_013 [33]): 1.85
signal (blank-control = 1) (Peptide_024 [34]): 4
signal (blank-control = 1) (Peptide_018 [35]): 3.49
signal (blank-control = 1) (Peptide_051 [36]): 2.32
signal (blank-control = 1) (Peptide_093 [37]): 3.72
signal (blank-control = 1) (Peptide_021 [38]): 2.08
